Test results: patent US20230416321A1

What follows are substances tested against TβRII-IgG Fc fusion protein (human) (UniProt P37173) (assay: capture assay on plate-immobilised TβRII-Fc, detection biotin anti-IL-2 / streptavidin-HRP, TMB 450 nm; Kd from the capture curve).

masked TGF-β1 construct, IL-2 - IgG scaffold - TβRII(Δ25, D118A, E55A) mask - TGF-β1, sequence (P01137 other isoform, or with tags, fused parts or gaps, stated change not applied): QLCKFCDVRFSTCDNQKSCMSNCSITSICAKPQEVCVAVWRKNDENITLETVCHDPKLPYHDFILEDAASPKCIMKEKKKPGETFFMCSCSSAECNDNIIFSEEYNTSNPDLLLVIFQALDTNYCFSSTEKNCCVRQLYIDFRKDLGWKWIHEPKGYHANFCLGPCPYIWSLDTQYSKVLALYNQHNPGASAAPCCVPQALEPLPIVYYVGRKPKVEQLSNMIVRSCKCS
masked TGF-β1 construct, IL-2 - IgG scaffold - TβRII(Δ25, D118A) mask - TGF-β1, sequence (P01137 other isoform, or with tags, fused parts or gaps, stated change not applied): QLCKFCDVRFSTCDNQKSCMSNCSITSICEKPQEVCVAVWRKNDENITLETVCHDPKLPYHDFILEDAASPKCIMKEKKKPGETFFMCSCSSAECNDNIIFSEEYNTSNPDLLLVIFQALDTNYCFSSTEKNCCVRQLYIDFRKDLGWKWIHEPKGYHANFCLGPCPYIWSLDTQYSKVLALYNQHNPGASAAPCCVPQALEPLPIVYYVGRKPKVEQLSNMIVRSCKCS
masked TGF-β1 construct, IL-2 - IgG scaffold - TβRII(Δ25, D118A, D32N) mask - TGF-β1, sequence (P01137 other isoform, or with tags, fused parts or gaps, stated change not applied): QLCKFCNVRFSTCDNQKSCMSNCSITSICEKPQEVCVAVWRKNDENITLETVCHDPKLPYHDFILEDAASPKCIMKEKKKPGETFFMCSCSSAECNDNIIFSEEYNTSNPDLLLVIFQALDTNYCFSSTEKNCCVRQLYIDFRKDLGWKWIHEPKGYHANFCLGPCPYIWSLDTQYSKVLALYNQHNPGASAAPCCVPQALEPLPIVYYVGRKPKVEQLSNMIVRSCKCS
masked TGF-β1 construct, IL-2 - IgG scaffold - TβRII(Δ25, D118A, S52L) mask - TGF-β1, sequence (P01137 other isoform, or with tags, fused parts or gaps, stated change not applied): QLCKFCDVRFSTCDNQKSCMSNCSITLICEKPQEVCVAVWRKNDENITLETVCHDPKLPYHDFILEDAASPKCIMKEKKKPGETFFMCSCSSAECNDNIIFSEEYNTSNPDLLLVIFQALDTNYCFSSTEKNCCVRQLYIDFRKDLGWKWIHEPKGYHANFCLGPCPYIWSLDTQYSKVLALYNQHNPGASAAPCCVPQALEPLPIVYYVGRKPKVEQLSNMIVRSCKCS

Kd [µM]	Substance
1.51	masked TGF-β1 construct, IL-2 - IgG scaffold - TβRII(Δ25, D118A) mask - TGF-β1 (from UniProt P01137 279-390) (Fc fusion)
5.9	masked TGF-β1 construct, IL-2 - IgG scaffold - TβRII(Δ25, D118A, D32N) mask - TGF-β1 (from UniProt P01137 279-390) (Fc fusion)
2.99	masked TGF-β1 construct, IL-2 - IgG scaffold - TβRII(Δ25, D118A, E55A) mask - TGF-β1 (from UniProt P01137 279-390) (Fc fusion)
154	masked TGF-β1 construct, IL-2 - IgG scaffold - TβRII(Δ25, D118A, S52L) mask - TGF-β1 (from UniProt P01137 279-390) (Fc fusion)
